Data from the supplement of paper PMC9170038.

System: MS2 coat protein
Assay: apparent KD of MS2 coat protein; higher = weaker reporter binding
Details: Eterna round: R107
Summary of the method: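 Designed RNA switches were transcribed on-chip from Illumina sequencing clusters and titrated with SNAP-549-labelled MS2 coat protein in twofold steps from 0.7 or 1.5 nM up to 3 µM. Each step lasted 0.8–1.5 h at first and 10–20 min by the end, in 100 mM Tris-HCl pH 7.5, 80 mM KCl and 4 mM MgCl2, without or with constant ligand. Apparent KD is the median, for each design, of fits to normalised cluster binding curves.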

[1] = input ligand: theophylline 20 uM
[2] = input ligand: theophylline 2 mM
[3] = input ligand: tryptophan 2.4 mM

| Sequence | apparent KD of MS2 coat protein (input ligand: arginine 13.2 mM) | apparent KD of MS2 coat protein [1] | apparent KD of MS2 coat protein [2] | apparent KD of MS2 coat protein (input ligand: none) | apparent KD of MS2 coat protein [3] |
| --- | --- | --- | --- | --- | --- |
| GACGGCUCGACGGCCGCCACUCCCUCCGACUGAAGGCACAGUGGACAUGAGGAUCACCCAUGUCCGAGGACCGGGUCGAUCCUGG [theeternabot_sameState_MS2_Trp_B_32] | 14.5 nM | 19.3 nM | 18.3 nM |  |  |
| CGCCACUCGAGUGAUCCUCACGAGUGGCUACGAGGACCGGUACGGCCGCCACUCGAAUUAACAUGAGGAUCACCCAUGUAAUCUA [Brourdmod08] | 30 nM | 200 nM | 322 nM |  |  |
| AGGACAUCGGGAAGGAGCGCAUCCAAACCACACAUGAGGAUCACCCAUGUAUAAAUAUGCAUGCAGGUAGGUCGCCCGGUGUCUC [Veaza] | 77 nM | 140 nM | 137 nM | 109 nM | 108 nM |
| GCUGUACCAUGAAGGAGCGUCGUUGAUUGAGAAUACACAUGAGGAUCACCCAUGUUUUUAUGACAGGUAGGUCGCAUGGUACAGC [SSAB #16] | 13.8 nM | 25.1 nM | 18.9 nM | 12.9 nM | 12.1 nM |
| CCUUAACAUGAGGAUCACCCAUGUCUGGAUACCAGAUACAGAUAAAUCCCUUGGCAGCCAAAAUAUGAAAGAAAUAAAAUAAGAA [theeternabot_sameState_MS2_Theo_A_29] | 27.5 nM | 66.3 nM |  |  | 50.2 nM |
| AUAUUAAUCGGAAGGAGCGGUACAUGAGGAUCACCCAUGUGCUAAGCUAGCAGAUCCCGUUACCAGGUAGGUCGCCGAGUUAUGA [Titeonra] | 35.6 nM | 30.9 nM | 29.5 nM | 24 nM | 23.4 nM |
| CCGGAGACCUCGGCCGCCACUCUCCAUGAGGAUCUCCCAUGUAACAUGAGGAUCACCCAUGUGCUGAGGACCGGGAGGUCCUCCU [Same State Tryptophan B GF 20] | 18.7 nM | 16.4 nM | 17 nM | 13.2 nM | 20.9 nM |
| GCUACAUGAGGAUCACCCAUGUAUGCGAGCCGAGGACCGGUACGGCCGCCACUCGCUUAACAUGAGGAUCACCCAUGUUGCUCGC [SSTA DOUBLE!!! :-D #18] | 19.7 nM | 36.2 nM | 28.1 nM |  |  |
| UCAUUUUUCACGGCCGCCACUUCAAGGUCCUGAGGCUGGGCAACACAUGAGGAUCACCCAUGUCGAAGGACCGGGUGAAGCUACC [theeternabot_sameState_MS2_Trp_B_34] | 152 nM | 248 nM | 527 nM |  |  |
| AUACAUGAGGCGGCCGCCACUUUACAUGAGGAUCAACAUGAGGAUCACCCAUGUUACAUGUGGAUAAGGACCGGGCCUCAUGUAU [Same State Tryptophan B 2] | 51.9 nM | 178 nM | 313 nM | 180 nM | 91.2 nM |
| AAAGUUGAUGAGUUGCGUUUGUGUUCCGAAGGAGCGAGAAUUAUCUCAGGUAGGUCGCGGAACAUGAGGAUCACCCAUGUAUAAA [XArg-A 19 NuV1&2 original #dotplot2>1] | 35.3 nM | 46.2 nM | 41.6 nM | 36.3 nM | 34.3 nM |
| UGGUACAUGGCGGCCGCCACUUCACGUAAAAUAAAAGCUUGAGGAUCACCCAAGUAAUAAGUUGGGAGGACCGGGUCAUGUACCU | 19.2 nM | 27 nM | 24.7 nM | 19.8 nM | 16.6 nM |
| UGGGCUGGGUGCGUAAAGGGCCUGGCGCAUCGAGGACCGGUACGGCCGCCACUCGGCUGUACAUGAGGAUCACCCAUGUCAGGGU [#1 Same State - Tryptophan A Attempt #18 (HarryS)] | 45.9 nM | 552 nM | 506 nM | 192 nM | 364 nM |
| AGCGCGAAUAGAUCCAAAGUUAUUAGUGAGCGAGGACCGGUACGGCCGCCACUCGUGGCUCUACAUGAGGAUCACCCAUGUACAU [theeternabot_exclusion_MS2_Trp_A_10] | 52.2 nM | 234 nM | 384 nM |  |  |
| GCUUGGGUGGCACAGCACUGGCAGUGCGAUACCAGCACGGUAACGUGCCCUUGGCAGCGCACAUGAGGAUCACCCAUGUGGUGCG [#1 Exclusion - Theophylline A Attempt #26 (HarryS)] | 18.8 nM | 66.9 nM | 275 nM | 24.4 nM | 26 nM |
| CGUGAUACUGGUAUACUCUGAAGAUCAAUUCGAGGACCGGUACGGCCGCCACUCGUUAGUAGACAUGAGGAUCACCCAUGUUAGU [theeternabot_exclusion_MS2_Trp_A_48] | 11.8 nM | 20.6 nM | 17.7 nM |  |  |
| UUAUGCAGGUCGGCCGCCACUACACACAUGAGGAUCACCCAUGUAGUUACUGGGUGAAGUGGCAGUAGGACCGGGACCUGCACAU [Brourdmod13] | 52 nM | 739 nM | 850 nM | 479 nM | 465 nM |
| AAACGUUGCUCAGAUACCAGACAUGAGGAUCACCCAUGUACCGAGGUACCCGAAAGGAAUGUCCCUUGGCAGCUGAGCAACGAAA [MAT - Exclusion Theophlline B - Mod of Eli - D23] | 14.6 nM | 19 nM |  |  | 10.2 nM |
